{
  "source": "paper PMC6054379",
  "key": {"[1]": {"target": "Staphylococcus aureus protein A (Staphylococcus aureus) (UniProt P38507)", "assay": "particle-based immunoassay read by flow cytometry; protein A covalently coupled (EDC/sulfo-NHS) to 6 μm (PAH/PAA)2 polyelectrolyte microcapsules; 10 μg purified BBM.1 in 1 mL PBS pH 8.2, 2 h; detected with GαM-AF488; dose-response also in PBS pH 7.2 and complete RPMI"}, "[2]": {"target": "Staphylococcus aureus protein A (Staphylococcus aureus) (UniProt P38507)", "assay": "particle-based immunoassay read by flow cytometry; protein A covalently coupled (EDC/sulfo-NHS) to 2.35 μm carboxylated PS beads; 10 μg purified BBM.1 in 1 mL PBS pH 8.2, 2 h; detected with GαM-AF488"}},
  "data": [
    {"substance": "murine monoclonal antibody BBM.1", "values": [
      {"measurement": "mean fluorescence intensity (MFI)", "setting": "[1]", "value": 33.5},
      {"measurement": "mean fluorescence intensity (MFI)", "setting": "[2]", "value": 12.2}
    ]}
  ]
}
